Test results: article PMC4968818

Biological target: voltage-dependent anion channel (VDAC) protein (human (endogenous in T47D)) (UniProt P21796)
Test: co-IP; VDAC immunoprecipitated from cell lysate (anti-VDAC1/2/3, protein G agarose; lysate first blocked with 10 uM VDAC-binding membrane domain peptide), beads washed with PBS and incubated at RT for 50 min with recombinant HK at pH 7.8; western blots for HK-1, HK-2 and VDAC; band intensities normalized by VDAC bands

B1: recombinant hexokinase 2 (HK-2) (enzyme)
chain: MIASHLLAYFFTELNHDQVQKVDQYLYHMRLSDETLLEISKRFRKEMEKGLGATTHPTAAVKMLPTFVRSTPDGTEHGEFLALDLGGTNFRVLWVKVTDNGLQKVEMENQIYAIPEDIMRGSGTQLFDHIAECLANFMDKLQIKDKKLPLGFTFSFPCHQTKLDESFLVSWTKGFKSSGVEGRDVVALIRKAIQRRGDFDIDIVAVVNDTVGTMMTCGYDDHNCEIGLIVGTGSNACYMEEMRHIDMVEGDEGRMCINMEWGAFGDDGSLNDIRTEFDQEIDMGSLNPGKQLFEKMISGMYMGELVRLILVKMAKEELLFGGKLSPELLNTGRFETKDISDIEGEKDGIRKAREVLMRLGLDPTQEDCVATHRICQIVSTRSASLCAATLAAVLQRIKENKGEERLRSTIGVDGSVYKKHPHFAKRLHKTVRRLVPGCDVRFLRSEDGSGKGAAMVTAVAYRLADQHRARQKTLEHLQLSHDQLLEVKRRMKVEMERGLSKETHASAPVKMLPTYVCATPDGTEKGDFLALDLGGTNFRVLLVRVRNGKWGGVEMHNKIYAIPQEVMHGTGDELFDHIVQCIADFLEYMGMKGVSLPLGFTFSFPCQQNSLDESILLKWTKGFKASGCEGEDVVTLLKEAIHRREEFDLDVVAVVNDTVGTMMTCGFEDPHCEVGLIVGTGSNACYMEEMRNVELVEGEEGRMCVNMEWGAFGDNGCLDDFRTEFDVAVDELSLNPGKQRFEKMISGMYLGEIVRNILIDFTKRGLLFRGRISERLKTRGIFETKFLSQIESDCLALLQVRAILQHLGLESTCDDSIIVKEVCTVVARRAAQLCGAGMAAVVDRIRENRGLDALKVTVGVDGTLYKLHPHFAKVMHETVKDLAPKCDVSFLQSEDGSGKGAALITAVACRIREAGQR
amount co-precipitated at pH 7.8, percent of that at pH 6.2: 213%

B2: recombinant hexokinase 1 (HK-1) (enzyme)
chain: MIAAQLLAYYFTELKDDQVKKIDKYLYAMRLSDETLIDIMTRFRKEMKNGLSRDFNPTATVKMLPTFVRSIPDGSEKGDFIALDLGGSSFRILRVQVNHEKNQNVHMESEVYDTPENIVHGSGSQLFDHVAECLGDFMEKRKIKDKKLPVGFTFSFPCQQSKIDEAILITWTKRFKASGVEGADVVKLLNKAIKKRGDYDANIVAVVNDTVGTMMTCGYDDQHCEVGLIIGTGTNACYMEELRHIDLVEGDEGRMCINTEWGAFGDDGSLEDIRTEFDREIDRGSLNPGKQLFEKMVSGMYLGELVRLILVKMAKEGLLFEGRITPELLTRGKFNTSDVSAIEKNKEGLHNAKEILTRLGVEPSDDDCVSVQHVCTIVSFRSANLVAATLGAILNRLRDNKGTPRLRTTVGVDGSLYKTHPQYSRRFHKTLRRLVPDSDVRFLLSESGSGKGAAMVTAVAYRLAEQHRQIEETLAHFHLTKDMLLEVKKRMRAEMELGLRKQTHNNAVVKMLPSFVRRTPDGTENGDFLALDLGGTNFRVLLVKIRSGKKRTVEMHNKIYAIPIEIMQGTGEELFDHIVSCISDFLDYMGIKGPRMPLGFTFSFPCQQTSLDAGILITWTKGFKATDCVGHDVVTLLRDAIKRREEFDLDVVAVVNDTVGTMMTCAYEEPTCEVGLIVGTGSNACYMEEMKNVEMVEGDQGQMCINMEWGAFGDNGCLDDIRTHYDRLVDEYSLNAGKQRYEKMISGMYLGEIVRNILIDFTKKGFLFRGQISETLKTRGIFETKFLSQIESDRLALLQVRAILQQLGLNSTCDDSILVKTVCGVVSRRAAQLCGAGMAAVVDKIRENRGLDRLNVTVGVDGTLYKLHPHFSRIMHQTVKELSPKCNVSFLLSEDGSGKGAALITAVGVRLRTEASS
amount co-precipitated at pH 7.8, percent of that at pH 6.2: 143%
